# Reference: the supplement of paper PMC9170038
# Tested on: MS2 coat protein
# Assay: apparent KD of MS2 coat protein; designed switch direction (-1 OFF switch, 1 ON switch): -1; higher = weaker reporter binding
# In short: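 The buffer was Tris-HCl pH 7.5 with KCl, MgCl2, BSA, DTT, tRNA and Tween-20. In it, SNAP-549-labelled MS2 coat protein was titrated in doubling steps from 0.7 or 1.5 nM to 3 µM over chip-bound RNA switches transcribed by stalled E. coli RNA polymerase on Illumina chips. Apparent KD is the per-design median over clusters of curve fits to normalised fluorescence.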
# [1] = Eterna round: R95, input ligand: microRNA oligo, concentration not stated
# [2] = Eterna round: R95, input ligand: FMN 200 uM
# [3] = Eterna round: R95, input ligand: none
# [4] = input ligand: microRNA oligo, concentration not stated
sequence,measurement,setting,value
CUUUUGUGAGGAUAUUAGUAGUAAUACAAUAGUAUUACUACUGAGAAGGCACAUGAGGAUCACCCAUGUUCCUC [Ex4 344 Omei mod 5] (puzzle: Exclusion 4),apparent KD of MS2 coat protein,[1],36.5 nM
"GAAAACGCAGAGGAUAUUUCAGGUCAAAGCUGCAAAGAAGGCUGCACAUGAGGAUCACCCAUGUGGUCAAUAAA [Mod of Quesina 21 - Jieux - Exclusion 6] (Eterna round: R97, puzzle: Exclusion 6)",apparent KD of MS2 coat protein,input ligand: FMN 200 uM,419 nM
same,apparent KD of MS2 coat protein,input ligand: none,34.3 nM
"GAAAACGUAGGAUAUUAAUACUUAUACAUGAGGAUCACCCAUGUUUGGUGGGUCAAAGAAUGAGAAGGGCGAUGAA [EX5 #10] (Eterna round: R97, puzzle: Exclusion 5)",apparent KD of MS2 coat protein,input ligand: FMN 200 uM,261 nM
same,apparent KD of MS2 coat protein,input ligand: none,376 nM
GAAAAGGAAGGAUAUACGAAAAAAAAGGGUAGAAAAAAAACACAUGAGGAUCACCCAUGUAGAAGGUCCAAAAG [salish99_ex2_r3_092] (puzzle: Exclusion 2),apparent KD of MS2 coat protein,[2],151 nM
same,apparent KD of MS2 coat protein,[1],43.5 nM
same,apparent KD of MS2 coat protein,[3],54.5 nM
GAAAAGGUAGGAUAUACGAAAAAAAAAGGUAGAAAAAAAACACAUGAGGAUCACCCAUGUAGAAGGACCAAAAG [salish99_ex2_r3_070] (puzzle: Exclusion 2),apparent KD of MS2 coat protein,[2],37.4 nM
same,apparent KD of MS2 coat protein,[1],51.5 nM
same,apparent KD of MS2 coat protein,[3],30.6 nM
GAAAAGGUAGGAUAUACGAAAAAAAAGGGUAGAAAAAAAACACAUGAGGAUCACCCAUGUAGAAGGACCAAGAG [salish99_ex2_r3_039] (puzzle: Exclusion 2),apparent KD of MS2 coat protein,[2],61.7 nM
same,apparent KD of MS2 coat protein,[1],24.3 nM
same,apparent KD of MS2 coat protein,[3],31.9 nM
GAAAAGGUAGGAUAUACGAAAUAAAAGGGUAGAAAAAAAACACAUGAGGAUCACCCAUGUAGAAGGACCAAAAG [salish99_ex2_r3_084] (puzzle: Exclusion 2),apparent KD of MS2 coat protein,[2],52.9 nM
same,apparent KD of MS2 coat protein,[1],15.5 nM
same,apparent KD of MS2 coat protein,[3],34.7 nM
GAAAAGGUAGGAUAUACGAUAAAAAAGGGUAGAAAAAAAACACAUGAGGAUCACCCAUGUAGAAGGACCAAAAG [salish99_ex2_r3_086] (puzzle: Exclusion 2),apparent KD of MS2 coat protein,[2],95.2 nM
same,apparent KD of MS2 coat protein,[1],20.7 nM
same,apparent KD of MS2 coat protein,[3],30 nM
GAAAAGGUAGGAUAUACGAUAAGAAAGGGUAGAUAAUAAACACAUGAGGAUCACCCAUGUAGAAGGACCAAAAG [salish99_ex2_r3_102] (puzzle: Exclusion 2),apparent KD of MS2 coat protein,[2],139 nM
same,apparent KD of MS2 coat protein,[1],35.4 nM
same,apparent KD of MS2 coat protein,[3],39.7 nM
"GAAAAGUCAGGAUAUGCAGAUAAAAAAACGAAAAAAAAUCUGCAGAAGGGACAUGAGGAUCACCCAUGUAAAAG [Mat - Exclusion 4 - Mayanna - D110] (Eterna round: R96, puzzle: Exclusion 4)",apparent KD of MS2 coat protein,[4],29.1 nM
"GAAAGCUUUGAGCUCGAUCACAUGAGGAUCACCCAUGUGGGAGCCAGGCGACGGCAUUCUGCGAGGGCGACUUUUGG [Eternabot (L2) Solution 42] (Eterna round: R97, puzzle: Sensor, turn-off variant 1)",apparent KD of MS2 coat protein,input ligand: FMN 200 uM,17.8 nM
same,apparent KD of MS2 coat protein,input ligand: none,15.4 nM
"GAACGUGGUGAGGAUAUCCGGUCUAACGUGCCAGGAGAAGGCGCCACAUGAGGAUCACCCAUGUGGGUCCCGCC [EX6 B.9] (Eterna round: R97, puzzle: Exclusion 6)",apparent KD of MS2 coat protein,input ligand: FMN 200 uM,26 nM
same,apparent KD of MS2 coat protein,input ligand: none,14.9 nM
"GAAGGGCGUCUAGGAUAUAGUAUACGGCGAACAUGAGGAUCACCCAUGUGUCCGAAUGCGGCGAGCUAGAAGGAGAAUUCGCCC [Enuseszave] (Eterna round: R96, puzzle: Exclusion NG 2)",apparent KD of MS2 coat protein,input ligand: FMN 200 uM,72.4 nM
same,apparent KD of MS2 coat protein,[4],33.4 nM
same,apparent KD of MS2 coat protein,input ligand: none,49.1 nM
"GAAUAGCGAGGAUAUACAUGAGGAUCACCCAUGUGAUCCUUAGGCUGUUCAAGCCAAUGUAGAAGGCGCAAAUU [jl-ex3.4.58 ViennaUCT mod] (Eterna round: R97, puzzle: Exclusion 3)",apparent KD of MS2 coat protein,input ligand: FMN 200 uM,76.6 nM
same,apparent KD of MS2 coat protein,input ligand: none,129 nM
